The text below walks through data of patent US6432920B1, “Nck SH3 binding peptides” (Cytogen Corporation, priority 1994, dated 2002).

One test has as its target T1, Src SH3-GST (Homo sapiens, UniProt P12931).
T1 construct: Bacterially expressed Src SH3 glutathione-S-transferase (Src-GST) fusion protein was purified from bacterial lysates; made in house; host or cells: bacteria (pGEX vector)
Kind of test: Biotinylated synthetic peptide binding ELISA to immobilized Src SH3-GST. Conditions: for binding to Src SH3 domain (Src SH3-GST): 10 μM biotinylated peptide, streptavidin-alkaline phosphatase ELISA, FIGS. 7 and 8; for relative specificity of binding for SH3 domains of different proteins: Src family versus Grb2, Crk, Abl, PLCγ SH3 domains, FIG. 8. As to the method:
(§1) These biotinylated peptides were assayed for direct binding to immobilized Src SH3-GST. […] Furthermore, a strong correlation was observed between the similarity of a given peptide to the preferred core consensus sequence RPLP(P/M)LP (SEQ ID NO:96) and the peptide's affinity for Src SH3-GST.
(§2) The preparation of Src-GST fusion protein was first described by Smith and Johnson, in Gene (1988) 67:31, the disclosure of which is incorporated by reference herein. Briefly, pGEX-derived (Pharmacia, Piscataway, N.J.) constructs expressing GST fusion proteins containing the SH3 domains of Src, Grb2, Crk, Abl, or PLCγ were obtained from Dr. Channing Der (University of North Carolina at Chapel Hill); a construct expressing the SH3 domain of Yes was obtained from Dr. Marius Sudol (Rockefeller University). The use of the pGEX bacterial expression vector for the production of GST-SH3 fusion proteins is well-known to those in the art. See, e.g., Cicchetti, P. et al., in Science (1992) 257:803-806. Briefly, the coding region for a particular SH3 domain can be fused in-frame at the Bam HI site of pGEX-2T. Thus, fusion proteins were prepared as per the manufacturer's instructions, and quantified by Coomassie Blue staining of SDS-polyacrylamide gels. Microtiter wells were coated with 5-20 μg GST-SH3 fusion protein in 100 mM NaHCO3, pH 8.5, blocked with 100 mM NaHCO3 (pH 8.5) 1% BSA, and washed. All washes consisted of five applications of 1XPBS, 0.1% Tween 20, 0.1% BSA (Buffer A). Where appropriate, the amount of protein bound to each well was quantified with an anti-GST antibody-based ELISA (Pharmacia, Piscataway, N.J.), and with a GST-binding phage, isolated during the course of this work.
Bacterially expressed Src SH3 glutathione-S-transferase (Src-GST) fusion protein was purified from bacterial lysates using glutathione agarose 4B (Pharmacia), according to the manufacturer's instructions. Bound Src-GST fusion protein was eluted from the glutathione agarose with 10 mM glutathione in PBS. Microtiter wells were then coated with Src-GST fusion protein (1-10 μg/well, in 50 mM NaHCO3, pH 8.5) overnight at 4° C. To block non-specific binding of phage, 100 μL 1% BSA in 100 mM NaHCO3, pH 8.5, was added to each well and allowed to incubate at room temperature for 1 hour. The wells were then washed five times with 200 μL PBS, 0.1% Tween™ 20, 0.1% BSA (Buffer A).
(§3) Peptides were obtained from Research Genetics (Birmingham, Ala.), Chiron Mimotopes (Victoria, Australia), or synthesized by conventional techniques by Dr. J. Mark Carter of Cytogen Corporation (Princeton, N.J.). Peptide purity was assessed by HPLC and/or mass spectrometry. Biotinylated peptides were synthesized with either a KSGSG (SEQ ID NO:103) or a GSGS (SEQ ID NO:104) peptide linker (a spacer) between the biotin and the N-terminus of the peptide. Binding experiments were performed as above, excepting the use of 10 μM peptide instead of phage. Bound biotinylated peptide was detected with streptavidin conjugated to alkaline phosphatase (Sigma Chemical Co., St. Louis, Mo.). After one hour incubation period at room temperature, the wells were washed, and a solution of 3 mM p-nitrophenyl-phosphate (US Biochemicals, Cleveland, Ohio) in 50 mM NaCO3 (pH 9.8), and 50 mM MgCl2 was added and color allowed to develop. Signals were read with an ELISA plate reader (Molecular Devices, Menlo Park, Calif.) at 405 nm wavelength. Binding experiments were performed in triplicate.
Background: ELISA stands for enzyme-linked immunosorbent assay.

The target in another test is T2, Grb2-GST (Homo sapiens, UniProt P62993).
T2 construct: made in house; host or cells: bacteria (pGEX vector)
T2 sequence (P62993 whole entry): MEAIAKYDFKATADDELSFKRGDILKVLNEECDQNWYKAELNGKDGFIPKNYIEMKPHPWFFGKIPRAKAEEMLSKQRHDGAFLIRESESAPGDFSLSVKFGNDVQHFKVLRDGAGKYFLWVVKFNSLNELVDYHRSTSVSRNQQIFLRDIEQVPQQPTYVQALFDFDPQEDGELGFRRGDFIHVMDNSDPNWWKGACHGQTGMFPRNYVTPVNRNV
Kind of test: Biotinylated synthetic peptide binding ELISA to immobilized Grb2-GST. Conditions: 10 μM biotinylated peptide, FIG. 8. As to the method: (§4) As mentioned above, the relative specificity of binding was explored. Thus, the relative binding of Src SH3-selected peptides to equal amounts of GST fusions to SH3 domains from different proteins was determined (FIG. 8). While all of the library-derived peptides bound the Src and Yes SH3 domains almost equally well, none of the peptides (with the exception of peptide T12.SRC3.1, the most divergent peptide tested) bound the SH3 domains of Grb2, Crk, Abl or PLCγ1 appreciably.
as §2, with “Briefly, the coding region for a particular SH3 domain can be fused in-frame at the Bam HI site of pGEX-2T.” left out, “Microtiter wells were coated with 5-20 μg GST-SH3 fusion protein in 100 mM NaHCO3, pH 8.5, blocked with 100 mM NaHCO3 (pH 8.5) 1% BSA, and washed. All washes consisted of five applications of 1XPBS, 0.1% Tween 20, 0.1% BSA (Buffer A).” left out
(§5) Peptides were obtained from Research Genetics (Birmingham, Ala.), Chiron Mimotopes (Victoria, Australia), or synthesized by conventional techniques by Dr. J. Mark Carter of Cytogen Corporation (Princeton, N.J.). Peptide purity was assessed by HPLC and/or mass spectrometry. […] Bound biotinylated peptide was detected with streptavidin conjugated to alkaline phosphatase (Sigma Chemical Co., St. Louis, Mo.). […] Signals were read with an ELISA plate reader (Molecular Devices, Menlo Park, Calif.) at 405 nm wavelength. […]

For another test, the system named is Xenopus laevis oocytes. Nature of the test: Progesterone-induced X. laevis oocyte maturation (germinal vesicle breakdown). To be noted: oocytes injected with 40 nL of 100 μM test peptide, 2 μg/mL progesterone; relative to water. In kind it is cell-based. As to the method:
Briefly, Stage VI oocytes were prepared and injected as previously described (see, Kay, B. K., in Methods in Cell Biol. (1991) 36:663-669). Oocytes were injected with 40 nL of 100 μM test peptide or water. After injection, the oocytes were placed in 2 μg/mL progesterone (Sigma, St. Louis, MO) and scored hourly for germinal vesicle breakdown (GVBD). LAPPKPPLPEGEV is SEQ ID NO:70.
Moreover, Xenopus laevis oocytes injected with mRNA encoding constitutively active Src undergo progesterone-induced maturation at an accelerated rate relative to oocytes injected with water or c-Src mRNA. Unger, T. F. and Steele, R. E. in Mol. Cell. Biol. (1992) 12:5485-5498. To explore the ability of the library-derived Src SH3-binding peptides to exert a biochemical effect in vivo, the influence of the peptides on the maturation of Xenopus laevis oocytes was examined. […] The magnitude of this effect is roughly equivalent to that seen with injection of mRNA encoding constituitively active Src. See, e.g., FIG. 3B in Unger, T. F. and Steele, R. E., supra. […]
Segments of adult ovary were removed surgically and incubated in 0.1% collagenase type D (Boehringer Mannheim, Indianapolis, Ind.) in Ca^2+-free OR2 (82.5 mM NaCl, 2.5 mM KCl, 1.0 mM MgCl2, 1.0 mM Na2HPO4, 5.0 mM HEPES, and 3.8 mM NaOH, pH 7.6). […] Oocytes were scored at hourly time points for germinal vesicle breakdown (GVBD).

In the next test the target is T3, Yes SH3-GST (Homo sapiens, UniProt P07947).
T3 construct: a construct expressing the SH3 domain of Yes was obtained from Dr. Marius Sudol (Rockefeller University); made in house; host or cells: bacteria (pGEX vector)
T3 sequence (P07947 91-152 limits assumed): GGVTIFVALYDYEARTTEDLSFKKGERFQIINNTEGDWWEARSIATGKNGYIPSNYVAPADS
Nature of the test: Biotinylated synthetic peptide binding ELISA to immobilized Yes SH3-GST. To be noted: 10 μM biotinylated peptide, FIG. 8. As to the method: as §1, §2, §3

A further test concerns PLCγ1 SH2SH3-GST. Nature of the test: Biotinylated synthetic peptide binding ELISA to immobilized PLCγ1 SH2SH3-GST. To be noted: 10 μM biotinylated peptide, FIG. 8. As to the method:
as §4
as §2, with “Briefly, the coding region for a particular SH3 domain can be fused in-frame at the Bam HI site of pGEX-2T.” left out, “Microtiter wells were coated with 5-20 μg GST-SH3 fusion protein in 100 mM NaHCO3, pH 8.5, blocked with 100 mM NaHCO3 (pH 8.5) 1% BSA, and washed. All washes consisted of five applications of 1XPBS, 0.1% Tween 20, 0.1% BSA (Buffer A).” left out
as §5

The target of test [1] is Src and PI-3′ Kinase SH3 domains. Conditions: Yu et al., biased synthetic peptide library; read-out: binding affinity; cited from earlier work.
The target in test [2] is cellular Src of Xenopus laevis oocytes (Xenopus laevis). Kind of test: cell-based or functional assay.

“Also recorded” adds a separate entry of the source.

As to “VLKRPLPIPPVTR [synthetic peptide of phage clone T12.SRC3.6]”, in the test with Src SH3-GST, the “binding to Src SH3 domain (Src SH3-GST)” value was “much more avidly; also recorded: strong binding affinities; also recorded: avid binding affinity” and the “relative specificity of binding for SH3 domains of different proteins” value (shortened to “relative specificity … of different proteins”) is recorded as “Src preferential”. Moreover, the “binding to Grb2 SH3 domain (Grb2-GST)” value in the test with Grb2-GST is reported as “some binding affinities”. Further, in the test on Xenopus laevis oocytes, the “rate of progesterone-induced oocyte maturation (germinal vesicle breakdown)” value is “faster rate; also recorded: increased rate”. The “binding to Yes SH3 domain (Yes SH3-GST)” value with Yes SH3-GST is “much more avidly”. In addition, the “binding to PLCγ SH3 domain (PLCγ1 SH2SH3-GST)” value (from here on “binding to PLCγ SH3 domain”) in the test with PLCγ1 SH2SH3-GST is on record as “little binding affinities”.
As for “RSTPRPLPMLPTTR [synthetic peptide of phage clone R8C.YES3.5]”, in the test with Src SH3-GST, the “binding to Src SH3 domain (Src SH3-GST)” value is “much more avidly; also recorded: strong specific binding affinity” and the “relative specificity … of different proteins” value is given as “highly specific”. In addition, in the test with Yes SH3-GST, the “binding to Yes SH3 domain (Yes SH3-GST)” value is “much more avidly”.
On to “ANPSPATRPLPTR [synthetic peptide of phage clone T12.SRC3.2]”, for which, in the test with Src SH3-GST, the “binding to Src SH3 domain (Src SH3-GST)” value is “comparable to the core consensus sequence” and the “relative specificity … of different proteins” value was “Src family specificity”. Also, the “binding to Src SH3 domain (Src SH3-GST)” value with Src SH3-GST (listed as APSPATRPLPTR) is “avid binding affinity”.
As for KISPPTPKPRPPRPLPV [reference compound], the “binding to Src SH3 domain (Src SH3-GST)” value with Src SH3-GST was “much less well”.
Take “RKLPPRPRR [“composite” peptide of Yu et al]”: the Kd in test [1] was 7.6 µM.
On to “GPHRRLPPTPATR [synthetic peptide of phage clone T12.SRC3.3]”, for which, in the test with Src SH3-GST, the “binding to Src SH3 domain (Src SH3-GST)” value is given as “much more avidly; also recorded: avid binding affinity” and the “relative specificity … of different proteins” value was “specific to src family SH3 domains”. In addition, in the test with Grb2-GST, the “binding to Grb2 SH3 domain (Grb2-GST)” value is on record as “little affinity”. In the test with Yes SH3-GST, the “binding to Yes SH3 domain (Yes SH3-GST)” value is given as “much more avidly”. Moreover, in the test on PLCγ1 SH2SH3-GST, the “binding to PLCγ SH3 domain” value is listed as “little affinity”.
Regarding “LAPPKPPLPEGEV [proline-rich region of the cytoskeletal protein vinculin, control peptide, reference compound]”, the “binding to Src SH3 domain (Src SH3-GST)” value in the test with Src SH3-GST is on record as “much less well”. The “rate of progesterone-induced oocyte maturation (germinal vesicle breakdown)” value with Xenopus laevis oocytes is listed as “not”.
On to RPLPPLP, for which, in the test with Src SH3-GST, the “binding to Src SH3 domain (Src SH3-GST)” value is “less effective; also recorded: only weakly”.
As to “RSTPRPLPPLPTTR [representative consensus motif with flanking residues of R8C.YES3.5]”, in the test with Src SH3-GST, the “binding to Src SH3 domain (Src SH3-GST)” value is on record as “much more avidly; also recorded: strong specific binding affinity” and the “relative specificity … of different proteins” value is “highly specific”. In the test with Yes SH3-GST, the “binding to Yes SH3 domain (Yes SH3-GST)” value was “much more avidly”.
For the molecule “GTVEPVPPPVPPRRRPESA [reference compound]”, in the test with Src SH3-GST, the “binding to Src SH3 domain (Src SH3-GST)” value is “much less well”.
For the molecule “GILAPPVPPRNTR [synthetic peptide of phage clone T12.SRC3.1]”, in the test with Src SH3-GST, the “binding to Src SH3 domain (Src SH3-GST)” value is listed as “much more avidly; also recorded: binds generically; also recorded: avid binding affinity” and the “relative specificity … of different proteins” value was “binds generically to a broad range of SH3 domains; also recorded: more generic SH3 domain-binding characteristics”. The “binding to Grb2 SH3 domain (Grb2-GST)” value with Grb2-GST is on record as “binds generically”. The “binding to Yes SH3 domain (Yes SH3-GST)” value with Yes SH3-GST is “much more avidly”. The “binding to PLCγ SH3 domain” value in the test on PLCγ1 SH2SH3-GST is “binds generically”.
As to VLKRPLPIPPVTR (modifications not checked) […], in test [2], the rate of progesterone-induced maturation of Xenopus laevis oocytes (germinal vesicle breakdown) worked out at 1 h.
